T1: CXCR3 (human cell surface protein CD183) (human, UniProt P49682 1-368)
T1 sequence (looked up): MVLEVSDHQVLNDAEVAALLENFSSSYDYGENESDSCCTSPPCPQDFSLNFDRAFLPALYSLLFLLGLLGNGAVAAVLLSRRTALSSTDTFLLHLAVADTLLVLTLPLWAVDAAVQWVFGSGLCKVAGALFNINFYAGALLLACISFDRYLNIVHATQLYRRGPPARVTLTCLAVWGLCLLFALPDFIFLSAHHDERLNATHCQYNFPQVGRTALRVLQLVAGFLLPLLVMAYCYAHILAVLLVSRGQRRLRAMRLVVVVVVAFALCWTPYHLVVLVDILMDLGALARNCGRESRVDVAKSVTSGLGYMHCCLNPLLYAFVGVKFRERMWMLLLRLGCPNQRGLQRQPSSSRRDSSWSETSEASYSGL

T2: rat CXCR3 (on polarized rat Th1 cells) (rat, UniProt Q9JII9 1-367)
T2 construct: whole, on cells; the target meant is rat CXCR3
T2 sequence (looked up): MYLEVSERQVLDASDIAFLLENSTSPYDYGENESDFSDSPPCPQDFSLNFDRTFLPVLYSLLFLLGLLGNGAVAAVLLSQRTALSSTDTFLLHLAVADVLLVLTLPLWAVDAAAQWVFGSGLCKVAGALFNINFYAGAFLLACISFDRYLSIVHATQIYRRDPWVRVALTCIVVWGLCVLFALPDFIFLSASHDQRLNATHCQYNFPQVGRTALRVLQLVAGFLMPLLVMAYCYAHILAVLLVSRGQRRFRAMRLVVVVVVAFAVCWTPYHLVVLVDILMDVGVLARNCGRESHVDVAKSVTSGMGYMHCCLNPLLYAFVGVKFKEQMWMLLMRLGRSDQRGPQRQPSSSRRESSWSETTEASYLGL

T3: CXCR3 (human cell surface protein CD183) (human, UniProt P49682 1-368)
T3 chain: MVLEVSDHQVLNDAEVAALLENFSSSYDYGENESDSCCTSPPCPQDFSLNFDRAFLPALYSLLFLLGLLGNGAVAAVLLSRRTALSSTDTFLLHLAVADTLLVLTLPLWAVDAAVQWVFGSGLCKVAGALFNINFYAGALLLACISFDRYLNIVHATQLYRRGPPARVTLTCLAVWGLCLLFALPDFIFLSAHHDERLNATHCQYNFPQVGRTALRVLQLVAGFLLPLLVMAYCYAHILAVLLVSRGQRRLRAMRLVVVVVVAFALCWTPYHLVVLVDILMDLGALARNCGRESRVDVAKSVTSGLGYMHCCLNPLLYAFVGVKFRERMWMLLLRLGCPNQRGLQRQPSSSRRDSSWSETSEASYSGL


How the values were obtained:
[1] = molecular target: T1, CXCR3 (human cell surface protein CD183); assay: cell-based or functional assay
[2] = molecular target: T1, CXCR3 (human cell surface protein CD183); assay: competition with Eu-IP-10 binding to Th1 cells
[3] = molecular target: T1, CXCR3 (human cell surface protein CD183); assay: competition with Eu-V44 (Eu-labeled mouse CXCR3mAb) binding to Th1 cells
Protocol: Th1 cells were incubated in a 96 well plate with Eu-CXCR3mAb in the absence or presence of various concentrations humanized CXCRmAbs. After incubation (1 hr at RT), cell bound Eu-CXCR3mAb was separated from free Europium by washing three times and the plate was read using Vctor2 fluorometer. IC$50$ values were calculated using Prizm software. Ab1 has a heavy chain sequence of humanized anti-CXCR3 V44D7 VH Lead #5 amino acid and a light chain sequence of humanized anti-CXCR3 V44D7 VK Lead #1 (see Informal Sequence Listing) in an IgG1 backbone. Ab2 has a heavy chain sequence of humanized anti-CXCR3 V44D7 VH Lead #5 and a light chain sequence of humanized anti-CXCR3 V44D7 VK Lead #7 (see Informal Sequence Listing) in an IgG1 backbone. Humanized Ab (IgG4) has a heavy chain sequence of humanized anti-CXCR3 V44D7 VH Lead #5 and a light chain sequence of the original mouse anti-CXCR3 V44D7 VK in an IgG4 backbone. Figure 22: FIG. 22 illustrates inhibition Eu-CXC10 by humanized CXCR3Abs. […] After incubation (1 hr at RT), cell bound Eu-CXCL10 was separated from free Europium by washing three times and the plate was read using Vctor2 fluorometer. IC$50$ values were calculated using Prizm software. […] After 2 hr incubation at 37° C., cells migrated to the bottom wells were determined by cell titer glo method (Promega).

[4] = molecular target: T1, CXCR3 (human cell surface protein CD183); assay: cell-based or functional assay; remark: listed apart in the source
[5] = molecular target: T2, rat CXCR3 (on polarized rat Th1 cells); assay: FACS on polarized rat Th1 cells
Protocol: FACS analysis was performed to determine reactivity of mouse CXCR3mAb to polarized rat Th1 cells. Only rabbit anti-mouse CXCR3 Ab bound to rat Th1 cells. […] As a control, mouse anti-CXCR3mAb binding to human Th1 cells is also shown (bottom panel).
The parental mouse CXCR3mAb was tested for binding to polarized rat Th1 cells by FACS. Only rabbit anti-mouse CXCR3 Ab (positive control) bound to rat Th1 cells.

[6] = molecular target: T1, CXCR3 (human cell surface protein CD183); assay: displacement of 125I-I-Tac binding to Th1 cells
[7] = molecular target: T1, CXCR3 (human cell surface protein CD183); assay: displacement of 125I-IP-10 binding to Th1 cells
Protocol: Figure 14: FIG. 14 illustrates expression of CXCR3 on Th1 cells. Th1 and Th2 cells were generated from cord blood and CXCR3 and CCR4 expression were determined by FACS. CXCR3 was present only Th1 cells. […] IC$50$ values were calculated using Prizm software. Lead candidates were highlighted in green. […] IC$50$ values were calculated using Prizm software. Lead candidates were highlighted in green.

[8] = molecular target: T3, CXCR3 (human cell surface protein CD183); assay: 125I-CXCL11 binding inhibition on Th1 cells

Chemotaxis IC50 [1] [nM] | IC50 [2] [nM] | IC50 [3] [nM] | Inhibition of IP-10-induced Th1 chemotaxis, IC50 [4] [µg/mL] | binding result [5] | IC50 [6] [nM] | IC50 [7] [nM] | IC50 [8] [nM] | Binder
0.28 | 0.35 | 1.82 | – | – | – | – | – | Humanized Ab2 H5K7 (antibody, V domains shown, IgG1 backbone, human kappa) VH: EVQLLESGGGLVQPGGSLRLSCAASGFTFSNYAMSWVRQAPGKGLEWVSTISSGGGYTYYPDSLKGRFTISRDNSKNTLYLQMNSLRAEDTAVYYCAKHGAPMTTVITYAPYYFYYWGQGTTVTVSS VL: ENVLTQSPAFLSVTPGEKVTITCRASSSVKYMYWYQQKPDQAPKLWIYYTSNLAPGVPSRFSGSGSGNDYTFTISSLEAEDAATYYCQQFTTSPYTFGGGTKLEIK
0.09 | 0.14 | 0.29 | 0.035 | no binding | 0.1 | 0.13 | – | Mouse anti-CXCR3 V44D7 (antibody, V domains shown, also called V44D7A; Ab#5) VH: EVMLVESGGGLVKPGGSLKLSCAASGFTFSNYAMSWVRQTPEKRLEWVATISSGGGYTYYPDSLKGRFTISRDNAKNTLFLQMSSLRSEDTAVYYCVRHGAPMTTVITYAPYYFDYWGQGTTLTVSS VL: ENVLTQSPAIMSASLGEKVTMNCRASSSVKYMYWYQQKSDASPKLWIYYTSNLAPGVPARFSGSGSGNSYSLTISSMEGEDAATYYCQQFTTSPYTFGGGTKLEIK
– | – | – | – | – | – | – | 0.01 | CXCL11 (I-TAC, interferon-inducible T cell a-chemoattractant) (ligand, 125I label, site not stated) FPMFKRGRCLCIGPGVKAVKVADIEKASIMYPSNNCDKIEVIITLKENKGQRCLNPKSKQARLIIKKVERKNF
